Experimental data reported in patent publication US10654893B2, “Self-assembling peptide compositions” (3-D MATRIX, LTD., priority 2014, dated 2020).

Assays:
Assay type in all cases: physicochemical
[1] = pH of reference peptide compositions in water; settings: reference composition in water
Description: Table 2, below, presents pH concentrations observed for reference compositions in which the indicated peptide is solubilized in water at the indicated concentration.

[2] = Visual observation of peptide compositions with selected salts (cloud point, critical ionic strength); settings: for Observation: room temperature; for Conc. at cloud point / Ionic strength at cloud point: visual observation of solubility
Procedure: Visual observations of RADA16 (SEQ ID NO:1), KLD12 (SEQ ID NO:2), and IEIK13 (SEQ ID NO:3) compositions with selected salts (e.g. KCl, MgCl2, CaCl2) are summarized in Tables 7-9. […] Apparent stiffness of RADA16 (SEQ ID NO:1), KLD12 (SEQ ID NO:2) and IEIK13 (SEQ ID NO:3) compositions was increased with increased ionic strength.
Critical ion strengths were determined from the visual observations recorded in Tables 7-9. When the ionic strengths of peptide compositions were higher than 0.9 M (RADA16 (SEQ ID NO:1)), 0.3 M (KLD12 (SEQ ID NO:2)) or 0.03 M (IEIK13 (SEQ ID NO:3)), the peptide compositions began phase separation. 0.9 M, 0.3 M and 0.03 M may represent critical ion strengths for RADA16 (SEQ ID NO:1), KLD12 (SEQ ID NO:2) and IEIK13 (SEQ ID NO:3), respectively.

[3] = Congo Red assay of gel formation in PBS solution (pH 7.4); settings: 0.5%, 1.0%, 1.5%, 2.0% and 2.5%
Procedure: A Congo Red assay was performed to determine gel formation of peptide compositions in a PBS (Phosphate buffered saline) solution (pH 7.4), as shown in FIG. 1. 100 μl of each gel at selected concentrations were plated on a glass slide. After 30 seconds, 500 μl of 1% Congo Red solution was added around and on top of each of the composition aliquots and then the excess Congo Red solution was wiped off prior to examination. RADA16 (SEQ ID NO:1), IEIK13 (SEQ ID NO:3), and KLD12 (SEQ ID NO:2) were plated at selected concentrations of 0.5%, 1.0%, 1.5%, 2.0% and 2.5%. Visual observation determined the success or failure of gelation at each concentration.

[4] = Vial inversion test of 0.5% RADA16 gels with CaCl2
Procedure: FIGS. 41A-41D depict the protocol used to follow peptide dissolution and to assess effects of particular anions and/or cations, and/or their concentration, on certain RADA16 (SEQ ID NO:1) compositions. As shown, peptide powder in a vial was dissolved in deionized water with vortexing and sonication. The particular peptide composition utilized in this Example was a 1% composition of RADA16 (SEQ ID NO:1) that was mixed at a 1:1 ratio with a 2× salt solution to obtain a final concentration of 0.5% RADA16 (SEQ ID NO:1) and the desired molar concentration of salt.
The protocol depicted in FIGS. 41A-41D was followed to prepare 0.5% solutions of RADA16 (SEQ ID NO:1) with different concentrations of CaCl2. Mixed solutions were allowed to sit for a relaxation period of about 24 hours. Vials were then inverted upside down so that gel properties could be assessed.

[5] = Mixing of RADA16 with DMEM and centrifugation
Procedure: When the mixture was centrifuged at 2500 rpm for 5 min, phase separation of cloudy RADA16 (SEQ ID NO:1) precipitated from the mixture. In this case, the peptide assemblies (i.e. initially were formed via hydrophobic interactions) were likely broken down during the mixing process. Attractive charge-charge interactions were dominant over hydrophobic interactions, which induce formation of random intra- and inter-molecular aggregates. The phase separation is illustrated in FIG. 7.

Arg-Ala-Asp-Ala-Arg-Ala-Asp-Ala-Arg-Ala-Asp-Ala-Arg-Ala-Asp-Ala [RADA16]
pH ([1]; Concentration 0.5%): 2.7
pH ([1]; Concentration 1.0%): 2.5
pH ([1]; Concentration 1.5%): 2.5
pH ([1]; Concentration 2.0%): 2.5
pH ([1]; Concentration 2.5%): 2.5
Observation ([2]; RADA16 0.5%, DPBS (pH 3.2) 1.0 M, ionic strength 1.0 M): Cloudy, phase-separated
Observation ([2]; RADA16 0.55%, DPBS (pH 3.2) 0.95 M, ionic strength 0.95 M): Slightly cloudy, brittle gel
Observation ([2]; RADA16 0.6%, DPBS (pH 3.2) 0.9 M, ionic strength 0.9 M): Clear, thick, stiffer gel
Observation ([2]; RADA16 0.75%, DPBS (pH 3.2) 0.75 M, ionic strength 0.75 M): Clear, thick, stiffer gel
Observation ([2]; RADA16 0.9%, DPBS (pH 3.2) 0.6 M, ionic strength 0.6 M): Clear, thick, stiffer gel
Observation ([2]; RADA16 0.93%, KCl 1.15 M, ionic strength 1.15 M): Cloudy, phase-separated
Observation ([2]; RADA16 0.95%, KCl 1.1 M, ionic strength 1.1 M): Slightly cloudy, brittle gel
Observation ([2]; RADA16 0.98%, KCl 1.05 M, ionic strength 1.05 M): Slightly cloudy, thick,
Observation ([2]; RADA16 1.0%, KCl 1.0 M, ionic strength 1.0 M): Clear, thick, stiffer gel
Observation ([2]; RADA16 1.0%, NaCl 1.0 M, ionic strength 1.0 M): Cloudy, phase-separated
Observation ([2]; RADA16 1.03%, KCl 0.95 M, ionic strength 0.95 M): Clear, thick, stiffer gel
Observation ([2]; RADA16 1.03%, NaCl 0.95 M, ionic strength 0.95 M): Cloudy, phase-separated
Observation ([2]; RADA16 1.05%, DPBS (pH 3.2) 0.45 M, ionic strength 0.45 M): Clear, thick, stiffer gel
Observation ([2]; RADA16 1.05%, KCl 0.9 M, ionic strength 0.9 M): Clear, thick, stiffer gel
Observation ([2]; RADA16 1.05%, NaCl 0.9 M, ionic strength 0.9 M): Slightly cloudy, brittle gel
Observation ([2]; RADA16 1.08%, NaCl 0.85 M, ionic strength 0.85 M): Clear, thick, stiffer gel
Observation ([2]; RADA16 1.10%, NaCl 0.8 M, ionic strength 0.8 M): Clear, thick, stiffer gel
Observation ([2]; RADA16 1.13%, KCl 0.75 M, ionic strength 0.75 M): Clear, thick, stiffer gel
Observation ([2]; RADA16 1.13%, NaCl 0.75 M, ionic strength 0.75 M): Clear, thick, stiffer gel
Observation ([2]; RADA16 1.2%, DPBS (pH 3.2) 0.3 M, ionic strength 0.3 M): Clear, thick, stiffer gel
Observation ([2]; RADA16 1.2%, KCl 0.6 M, ionic strength 0.6 M): Clear, thick, stiffer gel
Observation ([2]; RADA16 1.2%, NaCl 0.6 M, ionic strength 0.6 M): Clear, thick, stiffer gel
Observation ([2]; RADA16 1.27%, KCl 0.45 M, ionic strength 0.45 M): Clear, thick, stiffer gel
Observation ([2]; RADA16 1.27%, NaCl 0.45 M, ionic strength 0.45 M): Clear, thick, stiffer gel
Observation ([2]; RADA16 1.28%, CaCl2 0.433 M, ionic strength 1.3 M): Cloudy, phase-separated
Observation ([2]; RADA16 1.28%, MgCl2 0.433 M, ionic strength 1.3 M): Cloudy, phase-separated
Observation ([2]; RADA16 1.29%, CaCl2 0.417 M, ionic strength 1.25 M): Slightly cloudy, brittle gel
Observation ([2]; RADA16 1.29%, MgCl2 0.417 M, ionic strength 1.25 M): Slightly cloudy, brittle gel
Observation ([2]; RADA16 1.3%, CaCl2 0.4 M, ionic strength 1.2 M): Slightly cloudy, thick,
Observation ([2]; RADA16 1.3%, MgCl2 0.4 M, ionic strength 1.2 M): Slightly cloudy, thick,
Observation ([2]; RADA16 1.31%, CaCl2 0.383 M, ionic strength 1.15 M): Clear, thick, stiffer gel
Observation ([2]; RADA16 1.31%, MgCl2 0.383 M, ionic strength 1.15 M): Clear, thick, stiffer gel
Observation ([2]; RADA16 1.32%, CaCl2 0.35 M, ionic strength 1.05 M): Clear, thick, stiffer gel
Observation ([2]; RADA16 1.32%, MgCl2 0.35 M, ionic strength 1.05 M): Clear, thick, stiffer gel
Observation ([2]; RADA16 1.35%, CaCl2 0.3 M, ionic strength 0.9 M): Clear, thick, stiffer gel
Observation ([2]; RADA16 1.35%, DPBS (pH 3.2) 0.15 M, ionic strength 0.15 M): Clear, thick, stiffer gel
Observation ([2]; RADA16 1.35%, KCl 0.3 M, ionic strength 0.3 M): Clear, thick, stiffer gel
Observation ([2]; RADA16 1.35%, MgCl2 0.3 M, ionic strength 0.9 M): Clear, thick, stiffer gel
Observation ([2]; RADA16 1.35%, NaCl 0.3 M, ionic strength 0.3 M): Clear, thick, stiffer gel
Observation ([2]; RADA16 1.38%, CaCl2 0.25 M, ionic strength 0.75 M): Clear, thick, stiffer gel
Observation ([2]; RADA16 1.38%, MgCl2 0.25 M, ionic strength 0.75 M): Clear, thick, stiffer gel
Observation ([2]; RADA16 1.4%, CaCl2 0.2 M, ionic strength 0.6 M): Clear, thick, stiffer gel
Observation ([2]; RADA16 1.4%, MgCl2 0.2 M, ionic strength 0.6 M): Clear, thick, stiffer gel
Observation ([2]; RADA16 1.43%, CaCl2 0.15 M, ionic strength 0.45 M): Clear, thick, stiffer gel
Observation ([2]; RADA16 1.43%, KCl 0.15 M, ionic strength 0.15 M): Clear, thick, stiffer gel
Observation ([2]; RADA16 1.43%, MgCl2 0.15 M, ionic strength 0.45 M): Clear, thick, stiffer gel
Observation ([2]; RADA16 1.43%, NaCl 0.15 M, ionic strength 0.15 M): Clear, thick, stiffer gel
Observation ([2]; RADA16 1.45%, CaCl2 0.1 M, ionic strength 0.3 M): Clear, thick, stiffer gel
Observation ([2]; RADA16 1.45%, MgCl2 0.1 M, ionic strength 0.3 M): Clear, thick, stiffer gel
Observation ([2]; RADA16 1.48%, CaCl2 0.05 M, ionic strength 0.15 M): Clear, thick, stiffer gel
Observation ([2]; RADA16 1.48%, MgCl2 0.05 M, ionic strength 0.15 M): Clear, thick, stiffer gel
Observation ([2]; RADA16 1.5%, CaCl2 0 M, ionic strength 0 M): Clear, thick gel
Observation ([2]; RADA16 1.5%, DPBS (pH 3.2) 0 M, ionic strength 0 M): Clear, thick gel
Observation ([2]; RADA16 1.5%, KCl 0 M, ionic strength 0 M): Clear, thick gel
Observation ([2]; RADA16 1.5%, MgCl2 0 M, ionic strength 0 M): Clear, thick gel
Observation ([2]; RADA16 1.5%, NaCl 0 M, ionic strength 0 M): Clear, thick gel
Ionic strength range that did not noticeably change the opacity of compositions ([2]; approximately, depending on salt identities): 0.85˜1.15 M
Critical ion strength (above it compositions began phase separation) ([2]; from visual observations of Tables 7-9): 0.9 M
Critical ionic strength (when the composition becomes cloudy) ([2]; range over salts): 0.9˜1.2 M
Conc. at cloud point ([2]; salt CaCl2): 0.383~0.4 M
Ionic strength at cloud point ([2]; salt CaCl2): 1.15~1.2 M
Conc. at cloud point ([2]; salt DPBS (pH 3.2)): 0.9~0.95 M
Ionic strength at cloud point ([2]; salt DPBS (pH 3.2)): 0.9~0.95 M
Conc. at cloud point ([2]; salt KCl): 1.0~1.05 M
Ionic strength at cloud point ([2]; salt KCl): 1.0~1.05 M
Conc. at cloud point ([2]; salt MgCl2): 0.383~0.4 M
Ionic strength at cloud point ([2]; salt MgCl2): 1.15~1.2 M
Conc. at cloud point ([2]; salt NaCl): 0.85~0.9 M
Ionic strength at cloud point ([2]; salt NaCl): 0.85~0.9 M
Gel formation (success or failure of gelation) [3]: gelled at all concentrations
Gel functionality on vial inversion ([4]; 0.250 M CaCl2): fully functional gel
Gel functionality on vial inversion ([4]; 0.500 M CaCl2): semi-functional gel
Gel functionality on vial inversion ([4]; 1M CaCl2): non-functional gel
Appearance after mixing with DMEM ([5]; 0.5 mL of DMEM mixed with 0.5 mL of 2% RADA16): cloudy and runny emulsions
Phase behaviour after centrifugation of the DMEM mixture ([5]; centrifuged at 2500 rpm for 5 min): precipitated
